These results are taken from patent WO2018225033A1.

As usually defined, the Kd is the equilibrium constant for the complex coming apart.

Experiment [1] addresses rabbit Fc-tagged recombinant extracellular human ICOS (human) (UniProt Q9Y6W8). Briefly: SPR, Biacore T200, 1:1 kinetics model, rabbit Fc-tagged extracellular human ICOS. Background: Surface plasmon resonance follows binding to a sensor surface in real time, without labels.
Experiment [2] deals with FcyR. Briefly: cell-based or functional assay.
Experiment [3] deals with rabbit Fc-tagged recombinant extracellular human ICOS (human) (UniProt Q9Y6W8). Briefly: SPR, Biacore; reference is human ICOS-L binding to dimeric human ICOS (FIG. 15B).

Chain of UniProt Q9Y6W8 (Q9Y6W8 21-140): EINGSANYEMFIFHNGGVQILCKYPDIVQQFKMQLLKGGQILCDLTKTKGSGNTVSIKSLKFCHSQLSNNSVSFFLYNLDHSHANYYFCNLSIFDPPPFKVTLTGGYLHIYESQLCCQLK

B1: H2L5 IgG4PE (antibody, V domains shown)
VH: QVQLVQSGAEVKKPGSSVKVSCKASGYTFTDYAMHWVRQAPGQGLEWMGLISIYSDHTNYNQKFQGRVTITADKSTSTAYMELSSLRSEDTAVYYCGRNNYGNYGWYFDVWGQGTTVTVSS
VL: EIVLTQSPATLSLSPGERATLSCSASSSVSYMHWYQQKPGQAPRLLIYDTSKLASGIPARFSGSGSGTDYTLTISSLEPEDFAVYYCFQGSGYPYTFGQGTKLEIK
For B1, in experiment [1], the Kd was found to be 1.34 nM. In addition, in experiment [2], the IFN-γ induction in activated human PBMC assay is greater than 2 fold and the IFN-γ induction in modified mixed lymphocyte reaction was greater than 2 fold. Besides, the fold higher affinity than the ICOS-L/ICOS interaction in experiment [3] was found to be 17 fold.
